Where only a bound is given, the exact number is not on record here.

In the test the target is three HER2 antigens (HER2 fragment proteins used for panning). Kind of test: monoclonal phage ELISA on immobilised HER2 antigens. (ELISA stands for enzyme-linked immunosorbent assay.)

B1: H44 clone (VHH displayed on monoclonal M13 phage) (VHH)
VHH: QVQLVESGGTLVQAGGSLRLSCAASGRTFSSYAMGWFRQAPGKEREFVAAIRLKTDYSDSVKGRFTISRDNAKNTVYLQMNSLKPEDTAVYYCAAWLRRGYGASWYLTGADPRYWGRGTRVTVSS
B1: the abs. at 450 nm was over 1.5.

The record behind these values is patent WO2019198731A1.
